Data on 1 molecule can be found in US20060252692A1, “Inhibitors for use in hemostasis” (ZymoGenetics, Inc., priority 2002, published 2006).

The test system of assay [1] is norepinepherin contracted aortic rings. The experiment in a line: Vasodilatation of norepinepherin contracted aortic rings. Also noted: species or system Sprague Dawley rats. To be noted: 323, 162, and 81 ng/ml. The procedure:
The effect of zsig37 on vasodilatation of aortic rings was measured according to the procedures of (Dainty et al., J. Pharmacol. 100:767 (1990), and Rhee et al., Neurotox. 16:179 (1995)). Briefly, aortic rings 4 mm in length were taken from 4 month old Sprague Dawley rats and placed in modified Krebs solution (118.5 mM NaCl, 4.6 mM KCl, 1.2 mM MgSO4.7H2O, 1.2 mM KH2PO4, 2.5 mM CaCl2.2H2O, 24.8 mM NaHCO3 and 10 mM glucose). The rings were then attached to an isometric force transducer (Radnoti Inc.; Monrovia, Calif.) and the data recorded with a Ponemah physiology platform (Gould Instrument systems, Inc.; Valley View, Ohio) and placed in a 10 ml tissue bath oxygenated (95% O2, 5% CO2) modified Krebs solution. The tissues were adjusted to one gram resting tension and allowed to stabilize for one hour before testing.
The rings were tested by 5 μl additions of […] norepinepherin (Sigma Chemical Co.; St. Louis, Mo.) to a final concentration of about 1×10^−9 M and Carbachol, a muscarinic acetylcholine agonist (Sigma Chemical Co.) at 2×10^−7 M final, to test the integrity of the rings. After each test, the rings were washed three times with fresh buffer, five minutes between washes and allowed to rest one hour. […] Zsig37 was then added to one, two, or three of the four baths, without flushing, and tension on the rings was recorded and compared to the control rings. […]

The subject of assay [2] is platelet rich thrombus formation induced by vascular injury. The experiment in a line: Platelet rich thrombus formation induced by vascular injury (Folts Model). It is filed as in vivo, cynomolgus monkeys. To be noted: remained open. As for the experimental part: The effect of zsig37 on platelet rich thrombus formation induced by vascular injury (Folts Model) was also tested with cynomolgus monkeys. In the absence of treatment, blood flow in the vessels decreased to zero flow, indicating an occlusion of the artery. In contrast, cynomolgus monkeys that received the vascular injury and were treated with 1.0 mg/kg zsig37 had vessels that were fully patent by 20 minutes following treatment and remained open. When cynomolgus monkeys received the vascular injury and were treated with 0.5 mg/kg zsig37, their vessels were fully patent by 30 minutes following treatment and then remained open.

B1: zsig37: adipocyte complement related protein homolog, polypeptide of SEQ ID NO:2, inhibits collagen-mediated platelet activation and the complement pathway (protein, listed as Homo sapiens)
chain: MGSRGQGLLLAYCLLLAFASGLVLSRVPHVQGEQQEWEGTEELPSPPDHAERAEEQHEKYRPSQDQGLPASRCLRCCDPGTSMYPATAVPQINITILKGEKGDRGDRGLQGKYGKTGSAGARGHTGPKGQKGSMGAPGERCKSHYAAFSVGRKKPMHSNHYYQTVIFDTEFVNLYDHFNMFTGKFYCYVPGLYFFSLNVHTWNQKETYLHIMKNEEEVVILFAQVGDRSIMQSQSLMLELREQDQVWVRLYKGERENAIFSEELDTYITFSGYLVKHATEP
For B1, the “dose response of vasodilatation” value in assay [1] was “dose response could not be determined”. Further, the rings vasodilated in assay [1] (two of seven controls dilated, Fisher exact P 0.045) is recorded as 10 of the 12. For the same molecule, the “time to fully patent vessels following treatment” value in assay [2] (0.5 mg/kg) is no more than 30 min; in assay [2] (1.0 mg/kg) it was no more than 20 min.
